In PMC10951066, “The self-reactive FVIII T cell repertoire in healthy individuals relies on a short set of epitopes and public clonotypes” (Frontiers in Immunology, 2024):

Columns and labels:
[1] = tested on: CD4 T cells from healthy donors; experiment: IFN-γ ELISPOT of CD4 T cell lines raised against rFVIII, ovalbumin or KLH (four donors); assay type: cell-based, human
Source text: PBMCs were purified from the whole blood of anonymous healthy donors, who gave informed consent (Etablissement Français du Sang, Rungis, France), using Ficoll-Paque®. Monocyte-derived dendritic cells (DCs) were produced from cells isolated using Percoll gradient by 5 days of culture in AIM-V medium (Invitrogen, Villebon-sur-Yvette, France) supplemented with 1,000 U/ml recombinant human (rh) IL-4 and rhGM-CSF (both from R&D Systems, Lille, France). Mature DCs were produced by two supplementary days of culture in the presence of LPS (1 µg/ml) and R848 (10µg/ml). CD4 T cells were isolated from autologous PBMCs by positive selection using magnetic labeling with anti-CD4 mAbs conjugated to magnetic microbeads followed by magnetic cell sorting, as recommended by the manufacturer (Miltenyi Biotec, Bergisch Gladbach, Germany). Immature DCs were loaded overnight at 37 °C with either 0.2 µM of rFVIII, 0.2 µM of ovalbumin, or 0.25 µM of KLH in 96-well U-bottom plates, while mature DCs were used for FVIII peptides (10 ug/ml). […] 10,000 lymphocytes were collected at day 19 from each T cell line (expanded T cells contained in one well) and their specificity was assessed by using IFN-g ELISPOT.
T cells were incubated with autologous DCs alone (control) or with DCs incubated with rFVIII (0.2 µM), ovalbumin (3 µM), and KLH (1 µM) or PBMCs for FVIII peptides (10 µg/ml) in MultiScreen 96-well plates (Merck Millipore) previously coated with 2.5 µg/mL of anti-human IFN-γ monoclonal antibody (mAb; 1-D1K; Mabtech). […] The spot number was determined by using the ELISPOT Reader System (Autoimmun Diagnostika, Ebinger, Germany). HLA restriction was assessed using monoclonal antibodies (10 μg/ml) specific to HLA-DP (B7/21), HLA-DQ (SPVL3), or HLA-DR (L243).
(§1) Firstly, we aimed to characterize the T cell response to rFVIII in vitro using chicken ovalbumin (Ova) as a non-self-protein benchmark. […] Antigen specificity was assessed using the IFN-γ ELISPOT assay. […] The average number per donor of detected clonotypes was 535 and 918, for a total of 2,143 and 3,672 clonotypes detected for FVIII and Ova. […]

[2] = tested on: CD4 T cells from healthy donors; experiment: CD134/CD137 activation-induced marker flow cytometry of pooled specific T cell lines; assay type: cell-based, human; conditions: four donors, overnight re-stimulation with antigen-loaded DCs, unstimulated control removed
Protocol: Positive antigen-specific T cell lines determined by using the ELISPOT assay were pooled together at day 21, after 24 h of resting in IMDM medium and with the absence of cytokine stimuli. The pooled T cell lines were re-stimulated overnight with autologous DCs alone (control) or with DCs previously loaded with either 0.2 µM of rFVIII, 0.2 µM of ovalbumin, or 0.25 µM of KLH. Following 24 h of stimulation, cells were harvested in cell staining buffer (phosphate-buffered saline/EDTA 2 mM/bovine serum albumin 0.5%) and then stained for CD4 (Vio-Blue, clone REA623, Miltenyi Biotec) and activation-induced markers CD134 (OX-40) (PE anti-human, clone Ber-ACT35, Biolegend) and CD137 (4-1BB) (APC anti-human, clone 4B4-1, Biolegend). The CD4/CD134/CD137-positive population for each condition was sorted by flow cytometry ([…] III; Becton Dickinson, San Jose, CA, USA).
as §1, with “benchmark. Given the low frequency of FVIII-specific T cells in healthy donors, we enriched the CD4 population in vitro before analyzing their specificity and sorting them for TCR CDR3β sequencing (Figure 1A).” for “benchmark.”

B1: ovalbumin: chicken ovalbumin, non-self-protein benchmark (protein, UniProt P01012 2-386, looked up)
Ovalbumin: GSIGAASMEFCFDVFKELKVHHANENIFYCPIAIMSALAMVYLGAKDSTRTQINKVVRFDKLPGFGDSIEAQCGTSVNVHSSLRDILNQITKPNDVYSFSLASRLYAEERYPILPEYLQCVKELYRGGLEPINFQTAADQARELINSWVESQTNGIIRNVLQPSSVDSQTAMVLVNAIVFKGLWEKAFKDEDTQAMPFRVTEQESKPVQMMYQIGLFRVASMASEKMKILELPFASGTMSMLVLLPDEVSGLEQLESIINFEKLTEWTSSNVMEERKIKVYLPRMKMEEKYNLTSVLMAMGITDVFSSSANLSGISSAESLKISQAVHAAHAEINEAGREVVGSAEAGVDAASVSEEFRADHPFLFCIKHIATNAVLFFGRCVSP
[1]; Donor #1180, positive/tested T cell lines
  positive T cell lines: 13/24
[1]; among 96 T cell lines tested for each antigen, four healthy donors, specific = spot count twofold over control, minimum difference 25 spots
  specific T cell lines: 58
[1]; four healthy donors, estimated with Poisson distribution
  precursor frequency of antigen-specific CD4 T cells: 5 cells/M
[2]
  mean activation percentage (CD134/CD137 double-positive of total CD4): 1.25%
